The record followed here is publication PMC11417369, “DNA sequence and chromatin differentiate sequence-specific transcription factor binding in the human malaria parasite Plasmodium falciparum”.

B1: GTGCAC_negctrl_site497 (dsDNA)
DNA 1: TATATAATATATATTTTATATTTGTAATAATTTTTT
DNA 2: AAAAAATTATTACAAATATAAAATATATATTATATA
B2: GTGCAC_negctrl_site271 (dsDNA)
DNA 1: TTGTTAATAAATAAATAAATAAATATATTTATATAT
DNA 2: ATATATAAATATATTTATTTATTTATTTATTAACAA
B3: GTGCAC_negctrl_site517 (dsDNA)
DNA 1: TTTTGAAGTAACAAATAAATAAATAAATATATAAAA
DNA 2: TTTTATATATTTATTTATTTATTTGTTACTTCAAAA
B4: GTGCAC_negctrl_site203 (dsDNA)
DNA 1: TTGATGTATACAATGTAGATTATTTAATATTTCAAT
DNA 2: ATTGAAATATTAAATAATCTACATTGTATACATCAA
B5: GTGCAC_negctrl_site247 (dsDNA)
DNA 1: TGTTTATAAATATAAAAAAATATATATATATATTAT
DNA 2: ATAATATATATATATATTTTTTTATATTTATAAACA
B6: GTGCAC_negctrl_site534 (dsDNA)
DNA 1: TTTTTTATCTAATATTTTATAATTTTCATAAATTTG
DNA 2: CAAATTTATGAAAATTATAAAATATTAGATAAAAAA
B7: GTGCAC_negctrl_site80 (dsDNA)
DNA 1: TATTTTTTTTTCTTTTTATATATAATAATCTTCATT
DNA 2: AATGAAGATTATTATATATAAAAAGAAAAAAAAATA
B8: GTGCAC_negctrl_site726 (dsDNA)
DNA 1: GAAAACATTAAAAGTTAGATCATAAGAAAAGAATAT
DNA 2: ATATTCTTTTCTTATGATCTAACTTTTAATGTTTTC
B9: GTGCAC_negctrl_site216 (dsDNA)
DNA 1: GGTAGATTATTATTAACGAAAAATGTTTTTAACATA
DNA 2: TATGTTAAAAACATTTTTCGTTAATAATAATCTACC
B10: GTGCAC_negctrl_site41 (dsDNA)
DNA 1: TCTTGATACAAACATTTAAATAAATAAATAAAAAAA
DNA 2: TTTTTTTATTTATTTATTTAAATGTTTGTATCAAGA
B11: GTGCAC_negctrl_site125 (dsDNA)
DNA 1: AAAAATTATAAAAAACAAATATTAAATAATTATTAA
DNA 2: TTAATAATTATTTAATATTTGTTTTTTATAATTTTT
B12: GTGCAC_negctrl_site721 (dsDNA)
DNA 1: GTTTTAAAATTAAATATTATGGCATAATTCAAGAAA
DNA 2: TTTCTTGAATTATGCCATAATATTTAATTTTAAAAC
B13: GTGCAC_negctrl_site374 (dsDNA)
DNA 1: TTTCCGGTAATATGGAGATATATGTGGGTTTTTTTT
DNA 2: AAAAAAAACCCACATATATCTCCATATTACCGGAAA
B14: GTGCAC_negctrl_site394 (dsDNA)
DNA 1: AAAAAAAATTAAATAAATAAATATACACATATATAT
DNA 2: ATATATATGTGTATATTTATTTATTTAATTTTTTTT
B15: GTGCAC_negctrl_site442 (dsDNA)
DNA 1: ATAGTACAACAGGTTCTTGACAAACAATATGAATGT
DNA 2: ACATTCATATTGTTTGTCAAGAACCTGTTGTACTAT
B16: GTGCAC_negctrl_site68 (dsDNA)
DNA 1: GCAAAATAACAATGTTACACTTATAAAATTGAGGCA
DNA 2: TGCCTCAATTTTATAAGTGTAACATTGTTATTTTGC
B17: GTGCAC_negctrl_site454 (dsDNA)
DNA 1: AAAAAAAAAGTATATATATATTTAAGGAATTCTCTC
DNA 2: GAGAGAATTCCTTAAATATATATATACTTTTTTTTT
B18: GTGCAC_negctrl_site327 (dsDNA)
DNA 1: GCACACATATAATTAAACATATATTTGTATTATTTT
DNA 2: AAAATAATACAAATATATGTTTAATTATATGTGTGC
B19: GTGCAC_negctrl_site432 (dsDNA)
DNA 1: AAAAAAATAATATAAATAATGAAAAGATATAAATAA
DNA 2: TTATTTATATCTTTTCATTATTTATATTATTTTTTT
B20: GTGCAC_negctrl_site225 (dsDNA)
DNA 1: AAATGAATAAAATTTATTTATAAAAGAAAAATCACA
DNA 2: TGTGATTTTTCTTTTATAAATAAATTTTATTCATTT
B21: GTGCAC_negctrl_site197 (dsDNA)
DNA 1: TTTTTAAAAAAGATAAGCGAAAGAATTAATTTTTAA
DNA 2: TTAAAAATTAATTCTTTCGCTTATCTTTTTTAAAAA
B22: GTGCAC_negctrl_site616 (dsDNA)
DNA 1: TTATTTTTATTATAAATTATAAAATATAAATAAATA
DNA 2: TATTTATTTATATTTTATAATTTATAATAAAAATAA
B23: GTGCAC_negctrl_site543 (dsDNA)
DNA 1: AAATGTGTAAATATAATTAGTTTCACAAAACAAATA
DNA 2: TATTTGTTTTGTGAAACTAATTATATTTACACATTT
B24: GTGCAC_negctrl_site30 (dsDNA)
DNA 1: TCTTAAAAGGGGAATGGAATGGAGAAAATGAAATAA
DNA 2: TTATTTCATTTTCTCCATTCCATTCCCCTTTTAAGA
B25: GTGCAC_negctrl_site311 (dsDNA)
DNA 1: ATAAAATACCCTGATCTATTACATATTATATTCTGC
DNA 2: GCAGAATATAATATGTAATAGATCAGGGTATTTTAT
B26: GTGCAC_negctrl_site172 (dsDNA)
DNA 1: TATTTTTTAAGTGAACATTTGTTATTATATTCTTAT
DNA 2: ATAAGAATATAATAACAAATGTTCACTTAAAAAATA
B27: GTGCAC_negctrl_site127 (dsDNA)
DNA 1: ATATATACATATACTATATCTTTTATTTTTATTATT
DNA 2: AATAATAAAAATAAAAGATATAGTATATGTATATAT
B28: GTGCAC_negctrl_site469 (dsDNA)
DNA 1: AACAAAGGATTTATATATACATACATACATACATAA
DNA 2: TTATGTATGTATGTATGTATATATAAATCCTTTGTT
B29: GTGCAC_negctrl_site277 (dsDNA)
DNA 1: TTTTTTAAATATTATTTTTATGAGTAAATATATTAT
DNA 2: ATAATATATTTACTCATAAAAATAATATTTAAAAAA
B30: GTGCAC_negctrl_site589 (dsDNA)
DNA 1: TTCTTTAATAAAATAATCTCAAAGAAAATTTTTTCT
DNA 2: AGAAAAAATTTTCTTTGAGATTATTTTATTAAAGAA
B31: GTGCAC_negctrl_site372 (dsDNA)
DNA 1: AAAAAAATCACATAAAATACTTTATTTTATATTATA
DNA 2: TATAATATAAAATAAAGTATTTTATGTGATTTTTTT
B32: GTGCAC_negctrl_site611 (dsDNA)
DNA 1: ATCGAAATTTTAGAATATATATGATGTTACTTAAGT
DNA 2: ACTTAAGTAACATCATATATATTCTAAAATTTCGAT
B33: GTGCAC_negctrl_site494 (dsDNA)
DNA 1: AAGTTTAAGAAATAATTCATATTTACTTCCATCCTC
DNA 2: GAGGATGGAAGTAAATATGAATTATTTCTTAAACTT
B34: GTGCAC_negctrl_site606 (dsDNA)
DNA 1: TTTAATTTTACATGAGAAACATATTACAATAAAATA
DNA 2: TATTTTATTGTAATATGTTTCTCATGTAAAATTAAA
B35: GTGCAC_negctrl_site370 (dsDNA)
DNA 1: AATATATGGTTTCATGATATTAAATTCAATTTAATG
DNA 2: CATTAAATTGAATTTAATATCATGAAACCATATATT
B36: GTGCAC_negctrl_site76 (dsDNA)
DNA 1: AATATATGCTTTCGTTATATTAAATTCAATTTAATG
DNA 2: CATTAAATTGAATTTAATATAACGAAAGCATATATT
B37: GTGCAC_negctrl_site22 (dsDNA)
DNA 1: AATATATTGTTTCCTGATATTAAATTCAATTTAATG
DNA 2: CATTAAATTGAATTTAATATCAGGAAACAATATATT
B38: GTGCAC_negctrl_site174 (dsDNA)
DNA 1: AAGAAAAAAAAAAAAAAAAAAAAAAAAAAGGAAAAA
DNA 2: TTTTTCCTTTTTTTTTTTTTTTTTTTTTTTTTTCTT
B39: GTGCAC_negctrl_site492 (dsDNA)
DNA 1: AAAACCTAAAAGTCTTAAATTTTAAATATACCTACA
DNA 2: TGTAGGTATATTTAAAATTTAAGACTTTTAGGTTTT
B40: GTGCAC_negctrl_site409 (dsDNA)
DNA 1: ATTGAGGCTGGTTATATAATAATTTTATTATTTTAG
DNA 2: CTAAAATAATAAAATTATTATATAACCAGCCTCAAT
B41: GTGCAC_negctrl_site418 (dsDNA)
DNA 1: TATTGACAAAAAAAAAAAAGGTAAAAAAGAAAGAAA
DNA 2: TTTCTTTCTTTTTTACCTTTTTTTTTTTTGTCAATA
B42: GTGCAC_negctrl_site334 (dsDNA)
DNA 1: TTTTTAATTAACTTTTTATAAATAAATAAAAATATA
DNA 2: TATATTTTTATTTATTTATAAAAAGTTAATTAAAAA

This data set deals with AP2-I D3 (Plasmodium falciparum, UniProt Q8IJW6 910-1027). Description: gcPBM; about 25 ug protein; PBS, 1% milk, 0.2 mg/ml BSA, salmon testes DNA, 0.03% Triton X-100. To be noted: tags: N-terminal GST (pGEX-4T-1), kept; label: surface-attached array probe.
Take B1: the binding signal is 7.15 ln median PBM intensity, better of two orientations.

As for B2, the binding signal is 7.14 ln median PBM intensity, better of two orientations.

On to B3, for which the binding signal was 7.16 ln median PBM intensity, better of two orientations.

As for B4, the binding signal is 7.03 ln median PBM intensity, better of two orientations.

As to B5, the binding signal is 7.14 ln median PBM intensity, better of two orientations.

In the case of B6, the binding signal is 7.06 ln median PBM intensity, better of two orientations.

On to B7, for which the binding signal was 7 ln median PBM intensity, better of two orientations.

As to B8, the binding signal is 7.04 ln median PBM intensity, better of two orientations.

Take B9: the binding signal is 7.18 ln median PBM intensity, better of two orientations.

For the molecule B10, the binding signal was 7.16 ln median PBM intensity, better of two orientations.

For the molecule B11, the binding signal is 7.08 ln median PBM intensity, better of two orientations.

As to B12, the binding signal was 7.22 ln median PBM intensity, better of two orientations.

With B13, the binding signal was 7.18 ln median PBM intensity, better of two orientations.

Turning to B14, the binding signal is 7.11 ln median PBM intensity, better of two orientations.

For the molecule B15, the binding signal is 7.13 ln median PBM intensity, better of two orientations.

For B16, the binding signal is 7.14 ln median PBM intensity, better of two orientations.

For the molecule B17, the binding signal is 7.18 ln median PBM intensity, better of two orientations.

In the case of B18, the binding signal was 7.22 ln median PBM intensity, better of two orientations.

In the case of B19, the binding signal is 7.13 ln median PBM intensity, better of two orientations.

As for B20, the binding signal is 7.04 ln median PBM intensity, better of two orientations.

For B21, the binding signal is 7.16 ln median PBM intensity, better of two orientations.

As for B22, the binding signal is 7 ln median PBM intensity, better of two orientations.

Regarding B23, the binding signal is 7.01 ln median PBM intensity, better of two orientations.

As to B24, the binding signal was 7.11 ln median PBM intensity, better of two orientations.

With B25, the binding signal is 7.03 ln median PBM intensity, better of two orientations.

For the molecule B26, the binding signal is 7.06 ln median PBM intensity, better of two orientations.

Consider B27, for which the binding signal was 7.2 ln median PBM intensity, better of two orientations.

Regarding B28, the binding signal is 7.14 ln median PBM intensity, better of two orientations.

Turning to B29, the binding signal was 7.22 ln median PBM intensity, better of two orientations.

As for B30, the binding signal was 7.02 ln median PBM intensity, better of two orientations.

For B31, the binding signal is 7.11 ln median PBM intensity, better of two orientations.

With B32, the binding signal was 7.04 ln median PBM intensity, better of two orientations.

Take B33: the binding signal was 7.03 ln median PBM intensity, better of two orientations.

For the molecule B34, the binding signal was 7.18 ln median PBM intensity, better of two orientations.

B35: the binding signal was 7.01 ln median PBM intensity, better of two orientations.

On to B36, for which the binding signal is 7.14 ln median PBM intensity, better of two orientations.

B37: the binding signal was 7.11 ln median PBM intensity, better of two orientations.

As for B38, the binding signal is 7.21 ln median PBM intensity, better of two orientations.

Regarding B39, the binding signal was 7.08 ln median PBM intensity, better of two orientations.

Take B40: the binding signal was 7.11 ln median PBM intensity, better of two orientations.

Take B41: the binding signal was 7.05 ln median PBM intensity, better of two orientations.

As to B42, the binding signal was 7.2 ln median PBM intensity, better of two orientations.
